Molecular target: Epidermal growth factor receptor (EGFR), labelled for MST (UniProt P00533)
Test: MST

## FIP-nha, a fungal immunomodulatory protein from Nectria haematococca (natural protein)
  Kd: 15.5 µM

Source: PMC8991989
